In the supplement of paper PMC10126150:
± gives the standard deviation of the averaged measurements.

System: ATP
Experiment: switch fluorescence ratio, 500 uM ATP over buffer (Cy3 cluster intensity, sum of 5 cycles each) (fold (ratio)); higher = stronger signal-on switching upon ATP binding; sequences stand for … in TCGTCGGCAGCGTCAGATGTGTATAAGAGACAGTTTTTTTTTTTTTTTTTTTTTTTTT…TC
Conditions: aptamer strand: ATP DNA aptamer (quencher-CACCTGGGGGAGTATTGCGGAGGAAGG + anchor), 100 nM annealed; ATP concentration: 500 uM
Outline: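 Between each of five buffer/ATP cycles, the flow-cell was stripped with NaOH and re-annealed. Each cycle imaged Cy3-labelled switching-strand clusters, annealed to 100 nM quencher-labelled ATP aptamer on a modified Illumina MiSeq flow-cell, first in selection buffer and then after 15 min with 500 uM ATP at 22 °C. The fluorescence ratio is summed target-cycle over summed buffer-cycle Cy3 intensity per cluster, averaged per switch-domain sequence, with clusters outside 100-1000 RFU excluded.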
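Further: ATP exposure 15 min at 22 °C before imaging.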

Sequence	switch fluorescence ratio
TTAACGGGGT	1.04 ± 0.073
TGTTACCTGA	1.058 ± 0.01
ATTAACTTCG	0.983 ± 0.013
GAGTCGTGTG	1.04 ± 0.024
ATTTTAGTGC	1.01 ± 0.053
ACAGTTAGGG	1.02 ± 0.024
AAGGATGAGG	0.987 ± 0.021
GATTGCTGGT	0.9513 ± 0.0046
TCCGAAGGTA	1.07 ± 0.025
TGGGGTAGGT	0.999 ± 0.011
CAAGTCAAGG	1.007 ± 0.0062
GTATAGTCGG	1.04 ± 0.017
CGTACGTTG	1 ± 0.022
GATATCAACG	1 ± 0.047
TAGTTATTGA	1.01 ± 0.038
GGTGCTAGCG	1.0247 ± 0.00089
TGTACGGGGT	1.01 ± 0.021
GTTTGGGAGG	0.963 ± 0.01
TCGTGTACTA	1.02 ± 0.035
AGTAACTAGA	1.01 ± 0.046
GGGAATTCTA	0.991 ± 0.021
TGTTTTCCCT	0.979 ± 0.053
TTTTATCTGT	1.01 ± 0.091
TTGGCATTTG	1.02 ± 0.064
ACTCGCAGGG	1.073 ± 0.0016

Sequence	switch fluorescence ratio
GATGGCCAGC	1.01 ± 0.041
GAATTAATTT	1 ± 0.04
GAGGCATGGG	1.027 ± 0.0065
GAGAAGTTTG	1.01 ± 0.018
TTTTCTTTGC	1.03 ± 0.042
TGGGGCTCTA	1.03 ± 0.033
CAAGGGGTCG	0.9946 ± 0.0066
CGTATTCGTA	0.978 ± 0.019
GTAGTTACGG	1.05 ± 0.019
TCAAGGGTGA	1.03 ± 0.022
AGTTAGACTT	1.02 ± 0.064
GGGTATGTTG	0.978 ± 0.032
GGCAGCTTTT	1.05 ± 0.088
TGGGCAAGTT	1.04 ± 0.044
GTTGGGTGTG	1.02 ± 0.019
TAGGCCGCTG	1.07 ± 0.15
GGTCTACTTG	0.984 ± 0.057
GTATCCTATA	1 ± 0.017
CGTACTGTGG	0.9977 ± 0.0099
GAGATTTAGC	1.03 ± 0.035
CAACTGTTTT	1.04 ± 0.1
CGTACGGTCT	1.05 ± 0.059
TCAATCTTCT	1.032 ± 0.0095
TGAAGTAATC	1.42 ± 0.43
TTTTCTGAGG	1.01 ± 0.044

Sequence	switch fluorescence ratio
AGTTTTTTTC	1.02 ± 0.023
AAGGAGGGGG	1.02 ± 0.058
ATAGTCCATA	0.991 ± 0.015
GGGGAGTCGA	1.03 ± 0.068
ACGGGCTTCG	1.05 ± 0.049
AAGTTACCTG	1.087 ± 0.0019
GAGGCTGTGC	1.052 ± 0.0057
TTTGTAAAAT	0.99 ± 0.021
GAGAAAGGGT	0.988 ± 0.019
ATGAATGGGG	1.01 ± 0.072
TTAGGGCATT	1.11 ± 0.2
TTGAATTTAG	0.986 ± 0.015
TCGGGTCGGG	1 ± 0.021
ACGGGATG	1.039 ± 0.0044
GCGGCTGAAA	1 ± 0.022
AGGGGAATTG	0.955 ± 0.021
GGGCGAAGTC	0.975 ± 0.03
TAATAGAGGG	1.03 ± 0.027
GTGGGAGGAG	0.985 ± 0.031
GATTCAGGAC	1.04 ± 0.012
ATCGATTTTA	0.978 ± 0.056
TATAGTGGGG	1.043 ± 0.0078
TATCTTTGGG	0.981 ± 0.026
ATGTTTTCGG	0.99 ± 0.044
GCACTTTAGC	1.03 ± 0.018

Sequence	switch fluorescence ratio
AATATACTTT	1.04 ± 0.051
CAGGCGACGG	1.01 ± 0.033
TCTGTGGCCC	1.01 ± 0.028
CATAGAATTT	0.978 ± 0.084
AGTGTTATTT	0.993 ± 0.011
TTGTTTCTTT	1 ± 0.017
GGACGAAGGG	1.09 ± 0.018
CGATTTTTAG	0.98 ± 0.032
TCTGAAGATC	1.06 ± 0.065
TAATCGAAGC	1 ± 0.048
GGGGGCCACT	0.975 ± 0.041
TTTTTTTTCA	1.01 ± 0.053
AAACTAGCGG	1.02 ± 0.016
TTTTGCAGGA	1.05 ± 0.14
TAAGATGACG	1.13 ± 0.05
TTTTTACGAA	1.01 ± 0.022
GGGGGTGTAG	1.008 ± 0.0053
AAAACTTTGC	1.02 ± 0.039
TCAGGTGCGG	1.16 ± 0.061
TTTGGATTGG	0.967 ± 0.023
TACCTCTTAA	1.05 ± 0.026
TTTTCCCGGG	1.13 ± 0.15
AAAATGGGGT	1.02 ± 0.052
TCGTTGGGAC	0.979 ± 0.021
AACGAAGGTA	0.9884 ± 0.0011
